Assay results: patent US20250177482

Columns and labels:
[1] = tested on: Complement Component 3b (C3b) in vitreous humor of African Green Monkeys
[2] = tested on: CFI-HSA (human serum albumin fused to the N-terminal end of wild type CFI)

Substance	ratio of C3b/iC3b in vitreous humor (chemiluminescent western blot, densitometry) [1]	activation (cleavage of CFI-HSA into its activated form) [2]
CFI-HSA (human serum albumin fused to the N-terminal end of wild type CFI)	showing a significant increase in cleavage in eyes receiveing a 1.0 mg injection of CFI-HSA compared to vehicle controls	
recombinant furin		more than 90% activation of the protein
